Data as given in patent US20230114491A1 (IMMUNEONCO BIOPHARMACEUTICALS SHANGHAI, published 2023).

T1: CD24 (human, UniProt P25063 27-59)
T1 construct: whole, on cells; GPI-anchored cell surface protein; also called human CD24; hCD24
T1 chain (looked up): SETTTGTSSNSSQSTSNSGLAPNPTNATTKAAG

B1: IMM4702H (bispecific antibody, human IgG1, kappa)
heavy: DVQLQESGPGLVKPSETLSLTCTVSGYSITSGYSWHWIRQPPGKGLEWIGYIHYSGSTKYNPSLKSRVTISVDTSKNQFSLKLSSVTAADTAVYYCARGADYALDYWGQRTSVTVSSASTKGPSVFPLAPSSKSTSGGTAALGCLVKDYFPEPVTVSWNSGALTSGVHTFPAVLQSSGLYSLSSVVTVPSSSLGTQTYICNVNHKPSNTKVDKRVEPKSCDKTHTCPPCPAPELLGGPSVFLFPPKPKDTLMISRTPEVTCVVVDVSHEDPEVKFNWYVDGVEVHNAKTKPREEQYNATYRVVSVLTVLHQDWLNGKEYKCKVSNKALPAPIAATISKAKGQPREPQVYTLPPSREEMTKNQVSLTCLVKGFYPSDIAVEWESNGQPENNYKTTPPVLDSDGSFFLYSKLTVDKSRWQQGNVFSCSVMHEALHNHYTQKSLSLSPGK
light: not shown
notes: Mutated SIRPαD1 linked via (G4S)3 to the N-terminus of each light chain of IMM47H (humanized VH and VL); also called recombinant fusion protein IMM4702H; IMM47H's heavy chain + SIRPαD1-linker-IMM47H's light chain
B2: IMM4701 (bispecific antibody, human IgG1, kappa)
heavy: not shown
light: DIQMTQSPSSLSASVGDRVTITCKSSQSLLYSSNQKNYLAWYQQKPGKAPKLLIYWASTRESGVPSRFSGSGSGTDFTLTISSLQPEDFATYYCQQNFIYPLTFGGGTKVELKRTVAAPSVFIFPPSDEQLKSGTASVVCLLNNFYPREAKVQWKVDNALQSGNSQESVTEQDSKDSTYSLSSTLTLSKADYEKHKVYACEVTHQGLSSPVTKSFNRGEC
notes: Mutated SIRPαD1 linked via (G4S)3 to the N-terminus of each heavy chain of the anti-CD24 IgG IMM47 (mouse VH, humanized VL); also called recombinant fusion protein IMM4701; SIRPαD1-linker-IMM47's heavy chain + IMM47's light chain
B3: IMM47H (antibody, human IgG1, kappa, V domains shown)
VH: DVQLQESGPGLVKPSETLSLTCTVSGYSITSGYSWHWIRQPPGKGLEWIGYIHYSGSTKYNPSLKSRVTISVDTSKNQFSLKLSSVTAADTAVYYCARGADYALDYWGQRTSVTVSS
VL: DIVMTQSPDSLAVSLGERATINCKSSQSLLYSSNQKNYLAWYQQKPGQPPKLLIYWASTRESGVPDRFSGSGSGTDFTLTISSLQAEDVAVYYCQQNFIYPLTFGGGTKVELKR
notes: IgG antibody with humanized VH and humanized VL; also called anti-CD24 antibody IMM47H
B4: IMM4702C (bispecific antibody, human IgG1, kappa)
heavy: DVQLQESGPDLVKPSQSLSLTCTVTGYSITSGYSWHWIRQFPGNKLEWMGYIHYSGSTKYNPSLKSRISITRDTSKNQFFLQLNSVTTEDTATYFCARGADYALDYWGQRTSVTVSSASTKGPSVFPLAPSSKSTSGGTAALGCLVKDYFPEPVTVSWNSGALTSGVHTFPAVLQSSGLYSLSSVVTVPSSSLGTQTYICNVNHKPSNTKVDKRVEPKSCDKTHTCPPCPAPELLGGPSVFLFPPKPKDTLMISRTPEVTCVVVDVSHEDPEVKFNWYVDGVEVHNAKTKPREEQYNATYRVVSVLTVLHQDWLNGKEYKCKVSNKALPAPIAATISKAKGQPREPQVYTLPPSREEMTKNQVSLTCLVKGFYPSDIAVEWESNGQPENNYKTTPPVLDSDGSFFLYSKLTVDKSRWQQGNVFSCSVMHEALHNHYTQKSLSLSPGK
light: not shown
notes: Mutated SIRPαD1 linked via (G4S)3 to the N-terminus of each light chain of IMM47C; also called recombinant fusion protein IMM4702C; IMM47C's heavy chain + SIRPαD1-linker-IMM47C's light chain

Key:
CD24 [1] = biological target: T1, CD24; assay: flow cytometry on MCF-7 cells that carry both CD24 and CD47; the two targets are not resolved
Procedure: (§1) Cells were washed with cold PBS twice, and then incubated with 100 μl FITC-conjugated secondary antibody against human IgG-Fc (Cat #F9512, Sigma) for 45 min. Cells were washed twice and re-suspended in 200 μl PBS. Then, the cells were subject to FACS analysis using a flow cytometer (Merck Millipore, Guava® easyCyte 5HT).

CD47 [2] = biological target: T2, CD47 (human, UniProt Q08722 19-323); assay: as above
T2 construct: whole, on cells; also called CD47s on Jurkat cells; CD47s on MCF-7 human breast cancer cells
T2 sequence (Q08722 19-323): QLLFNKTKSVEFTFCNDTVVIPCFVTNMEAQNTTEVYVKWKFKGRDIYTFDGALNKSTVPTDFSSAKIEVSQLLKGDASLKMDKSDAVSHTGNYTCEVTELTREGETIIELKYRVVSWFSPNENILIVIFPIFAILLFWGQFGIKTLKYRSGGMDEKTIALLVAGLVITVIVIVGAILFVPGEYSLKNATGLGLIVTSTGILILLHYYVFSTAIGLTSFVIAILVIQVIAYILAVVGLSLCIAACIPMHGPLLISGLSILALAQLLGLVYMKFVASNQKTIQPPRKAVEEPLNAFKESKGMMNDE
Procedure: as §1

CD47 [3] = biological target: T2, CD47; assay: flow cytometry on Jurkat cells (naturally expressing CD47), FITC anti-human IgG-Fc
Procedure: as §1

CD24 [4] = biological target: T1, CD24; assay: flow cytometry on CD24+CD47+ MCF-7 cells; positive control
Procedure: as §1

Row | Binder | binding result (CD24 [1]) | binding result (CD47 [2]) | binding result (CD47 [3]) | binding result (CD24 [4])
1 | B1 | binds | binds | – | –
2 | B2 | binds | – | binds | –
3 | B3 | – | – | – | binds
4 | B4 | binds | binds | – | –
